Reference: US20060241051A1 (Takeda / Millennium, published 2006)
Square brackets hold non-standard residues; d marks the D form. Primed or numbered codes have the meaning given here. Ends that are not written are not given here. * marks the point of attachment. Propanoyl(3-indol-3-yl) = O=C(CCc1c[nH]c2ccccc12)*; Phe(3-Cl) = N[C@@H](Cc1cccc(Cl)c1)C(=O)O; Phe(4-Cl) = N[C@@H](Cc1ccc(Cl)cc1)C(=O)O; Phe(4-NH2) = Nc1ccc(C[C@H](N)C(=O)O)cc1; Phe(2-Cl) = N[C@@H](Cc1ccccc1Cl)C(=O)O; 1Nal = N[C@@H](Cc1cccc2ccccc12)C(=O)O; 2Nal = N[C@@H](Cc1ccc2ccccc2c1)C(=O)O; Cyclohexanecarbonyl = O=C(C1CCCCC1)*; Arg(Me) = CNC(=N)NCCC[C@H](N)C(=O)O; Diphenylacetyl′ = not defined here; d3Pal = N[C@H](Cc1cccnc1)C(=O)O; amidino = N=C(N)*; azaGly = NNC(=O)O

Tests used:
[1] = target: T1, human OT7T175 (metastin receptor) (human, UniProt Q969F8 1-398); experiment: cell-based or functional assay
T1 sequence (Q969F8 whole entry L364H): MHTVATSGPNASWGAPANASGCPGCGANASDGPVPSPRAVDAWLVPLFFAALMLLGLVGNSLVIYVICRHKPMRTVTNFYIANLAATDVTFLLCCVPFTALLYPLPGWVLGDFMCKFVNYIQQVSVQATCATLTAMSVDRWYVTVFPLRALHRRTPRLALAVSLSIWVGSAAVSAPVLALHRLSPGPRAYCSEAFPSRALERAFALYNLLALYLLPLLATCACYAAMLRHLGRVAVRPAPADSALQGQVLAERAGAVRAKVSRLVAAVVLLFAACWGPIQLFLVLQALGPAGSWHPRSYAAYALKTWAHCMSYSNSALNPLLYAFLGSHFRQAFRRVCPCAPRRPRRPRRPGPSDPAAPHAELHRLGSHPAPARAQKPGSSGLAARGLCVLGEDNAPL

[2] = target: T1, human OT7T175 (metastin receptor); experiment: FMAT competition with Cy-5-labeled metastin (40-54), hOT7T175-expressed CHO cells
Protocol: h0T7T175-Expressed CHO cells were cultured in MEM-α medium (nucleic acid-free) containing 10% dialyzed serum. The medium was removed and the adherent cells were washed with PBS. Then, PBS containing 5 mM EDTA was added and the cells were scraped from a flask with a cell scraper. […] To each well of a 96-Well Black Clear Bottom Plate (Applied Biosystems, Inc.), 10 μL of assay buffer containing 1% dimethylsulfoxide was added to examine total binding, 10 μL of 10 μM non-labeled peptide (having the same amino acid sequence as that of the labeled one) solution diluted with assay buffer to examine non-specific binding, and 10 μL of a test compound diluted with assay buffer to examine the binding inhibition activity of the test compound, respectively. Furthermore, 90 μL each of the cell suspension was dispensed to each well. […] The specific binding is a value obtained by subtracting the non-specific binding from the total binding.

| Binder | intracellular Ca ion level-increasing activity (FLIPR) [1] | IC50 [2] [nM] |
| --- | --- | --- |
| Ac-WNSF[azaGly]L[Arg(Me)]F-NH2 (SMILES CNC(=N)NCCC[C@H](NC(=O)[C@H](CC(C)C)NC(=O)NNC(=O)[C@H](Cc1ccccc1)NC(=O)[C@H](CO)NC(=O)[C@H](CC(N)=O)NC(=O)[C@H](Cc1c[nH]c2ccccc12)NC(C)=O)C(=O)N[C@@H](Cc1ccccc1)C(N)=O) [Compound No. 272: des(1-2)-Acetyl-[AzaGly7,Arg(Me)9]MS10] | 2 specific activity to metastin (1-54) | 540 |
| {Indole‑3‑acetyl}-NSF[azaGly]L[Arg(Me)]F-NH2 [Compound No. 266: des(1-3)-Indole-3-acetyl-[AzaGly7,Arg(Me)9]MS10] | 2 specific activity to metastin (1-54) | 230 |
| {3‑Phenylpropionyl}-NSF[azaGly]L[Arg(Me)]F-NH2 [Compound No. 269: des(1-3)-3-Phenylpropionyl-[AzaGly7,Arg(Me)9]MS10] | 3 specific activity to metastin (1-54) | 470 |
| [dY]NFNSFF[azaGly]L[Arg(Me)]F-NH2 (11 residues; also called Endo-Phe5a-[D-Tyr1,Phe3,AzaGly7,Arg(Me)9]MS10) [Compound No. 270: [D-Tyr1,Phe3,Ser-Phe5,AzaGly7,Arg(Me)9]MS10] | 1 specific activity to metastin (1-54) | 15 |
| {n‑Hexanoyl}-NSF[azaGly]L[Arg(Me)]F-NH2 [Compound No. 277: des(1-3)-n-Hexanoyl-[AzaGly7,Arg(Me)9]MS10] | 2 specific activity to metastin (1-54) | 54 |
| [d3Pal]NWNSF[azaGly]L[Arg(Me)]F-NH2 (N-terminus assumed; SMILES CNC(=N)NCCC[C@H](NC(=O)[C@H](CC(C)C)NC(=O)NNC(=O)[C@H](Cc1ccccc1)NC(=O)[C@H](CO)NC(=O)[C@H](CC(N)=O)NC(=O)[C@H](Cc1c[nH]c2ccccc12)NC(=O)[C@H](CC(N)=O)NC(=O)[C@H](N)Cc1cccnc1)C(=O)N[C@@H](Cc1ccccc1)C(N)=O) [Compound No. 258: [D-Pya(3)1,AzaGly7,Arg(Me)9]MS10] | 2 specific activity to metastin (1-54) | 90 |
| [dY]NFNSF[azaGly]L[Arg(Me)]F-NH2 [Compound No. 244: [D-Tyr1,Phe3,AzaGly7,Arg(Me)9]MS10] | 1 specific activity to metastin (1-54) | 77 |
| [dY][dN]TNSF[azaGly]L[Arg(Me)]F-NH2 (N-terminus assumed; SMILES CNC(=N)NCCC[C@H](NC(=O)[C@H](CC(C)C)NC(=O)NNC(=O)[C@H](Cc1ccccc1)NC(=O)[C@H](CO)NC(=O)[C@H](CC(N)=O)NC(=O)[C@@H](NC(=O)[C@@H](CC(N)=O)NC(=O)[C@H](N)Cc1ccc(O)cc1)[C@@H](C)O)C(=O)N[C@@H](Cc1ccccc1)C(N)=O) [Compound No. 284: [D-Tyr1,D-Asn2,Thr3,AzaGly7,Arg(Me)9]MS10] | 1 specific activity to metastin (1-54) | 34 |
| [dY][dN]FNSF[azaGly]L[Arg(Me)]F-NH2 [Compound No. 257: [D-Tyr1,D-Asn2,Phe3,AzaGly7,Arg(Me)9]MS10] | 3 specific activity to metastin (1-54) | 40 |
| [dY][dH]WNSF[azaGly]L[Arg(Me)]F-NH2 [Compound No. 288: [D-Tyr1,D-His2,AzaGly7,Arg(Me)9]MS10] | 1 specific activity to metastin (1-54) | 0.072 |
| [dY]N[Phe(3-Cl)]NSF[azaGly]L[Arg(Me)]F-NH2 (N-terminus assumed; SMILES CNC(=N)NCCC[C@H](NC(=O)[C@H](CC(C)C)NC(=O)NNC(=O)[C@H](Cc1ccccc1)NC(=O)[C@H](CO)NC(=O)[C@H](CC(N)=O)NC(=O)[C@H](Cc1cccc(Cl)c1)NC(=O)[C@H](CC(N)=O)NC(=O)[C@H](N)Cc1ccc(O)cc1)C(=O)N[C@@H](Cc1ccccc1)C(N)=O) [Compound No. 248: [D-Tyr1,Phe(3Cl) 3,AzaGly7,Arg(Me)9]MS10] | 2 specific activity to metastin (1-54) | 58 |
| [dY]N[Phe(4-NH2)]NSF[azaGly]L[Arg(Me)]F-NH2 [Compound No. 250: [D-Tyr1,Phe(4NH2) 3,AzaGly7,Arg(Me)9]MS10] | 1 specific activity to metastin (1-54) | 3.7 |
| [dY][dS]WNSF[azaGly]L[Arg(Me)]F-NH2 [Compound No. 287: [D-Tyr1,D-Ser2,AzaGly7,Arg(Me)9]MS10] | 2 specific activity to metastin (1-54) | 2.3 |
| [dY]N[Phe(2-Cl)]NSF[azaGly]L[Arg(Me)]F-NH2 [Compound No. 247: [D-Tyr1,Phe(2CL) 3,AzaGly7,Arg(Me)9]MS10] | 1 specific activity to metastin (1-54) | 45 |
| [dY]N[Phe(4-Cl)]NSF[azaGly]L[Arg(Me)]F-NH2 [Compound No. 249: [D-Tyr1,Phe(4Cl) 3,AzaGly7,Arg(Me)9]MS10] | 1 specific activity to metastin (1-54) | 150 |
| [dA]NWNSF[azaGly]L[Arg(Me)]F-NH2 [Compound No. 259: [D-Ala1,AzaGly7,Arg(Me)9]MS10] | 1 specific activity to metastin (1-54) | 250 |
| {Indole‑3‑carbonyl}-NSF[azaGly]L[Arg(Me)]F-NH2 (also called des(1-3)-Indole-3-carboxyl-[AzaGly7,Arg(Me)9]MS10) [Compound No. 265: des(1-3)-Indole-3-carbonyl-[AzaGly7,Arg(Me)9]MS10] | 3 specific activity to metastin (1-54) | 95 |
| amidino-WNSF[azaGly]L[Arg(Me)]F-NH2 (SMILES CNC(=N)NCCC[C@H](NC(=O)[C@H](CC(C)C)NC(=O)NNC(=O)[C@H](Cc1ccccc1)NC(=O)[C@H](CO)NC(=O)[C@H](CC(N)=O)NC(=O)[C@H](Cc1c[nH]c2ccccc12)NC(=N)N)C(=O)N[C@@H](Cc1ccccc1)C(N)=O) [Compound No. 273: des(1-2)-Amidino-[AzaGly7,Arg(Me)9]MS10] | 5 specific activity to metastin (1-54) | 300 |
| [dY][2Nal]NSF[azaGly]L[Arg(Me)]F-NH2 [Compound No. 255: des(1)-[D-Tyr2,Nal(2) 3,AzaGly7,Arg(Me)9]MS10] | 1 specific activity to metastin (1-54) | 33 |
| {Diphenylacetyl′}-NSF[azaGly]L[Arg(Me)]F-NH2 [Compound No. 268: des(1-3)-Diphenylacetyl-[AzaGly7,Arg(Me)9]MS10] | 1 specific activity to metastin (1-54) | 550 |
| [dY]FNSF[azaGly]L[Arg(Me)]F-NH2 [Compound No. 254: des(1)-[D-Tyr2,Phe3,AzaGly7,Arg(Me)9]MS10] | 1 specific activity to metastin (1-54) | 11 |
| {4‑(3-Indolyl)butyryl}-NSF[azaGly]L[Arg(Me)]F-NH2 [Compound No. 267: des(1-3)-4-(3-Indolyl)butyryl-[AzaGly7,Arg(Me)9]MS10] | 2 specific activity to metastin (1-54) | 360 |
| Cyclohexanecarbonyl-NSF[azaGly]L[Arg(Me)]F-NH2 (SMILES CNC(=N)NCCC[C@H](NC(=O)[C@H](CC(C)C)NC(=O)NNC(=O)[C@H](Cc1ccccc1)NC(=O)[C@H](CO)NC(=O)[C@H](CC(N)=O)NC(=O)C1CCCCC1)C(=O)N[C@@H](Cc1ccccc1)C(N)=O) [Compound No. 278: des(1-3)-Cyclohexanecarbonyl-[AzaGly7, Arg(Me)9]MS10] | 2 specific activity to metastin (1-54) | 110 |
| [dY]N[1Nal]NSF[azaGly]L[Arg(Me)]F-NH2 (N-terminus assumed; SMILES CNC(=N)NCCC[C@H](NC(=O)[C@H](CC(C)C)NC(=O)NNC(=O)[C@H](Cc1ccccc1)NC(=O)[C@H](CO)NC(=O)[C@H](CC(N)=O)NC(=O)[C@H](Cc1cccc2ccccc12)NC(=O)[C@H](CC(N)=O)NC(=O)[C@H](N)Cc1ccc(O)cc1)C(=O)N[C@@H](Cc1ccccc1)C(N)=O) [Compound No. 245: [D-Tyr1,Nal(1)3,AzaGly7,Arg(Me)9]MS10] | 1 specific activity to metastin (1-54) | 98 |
| [d3Pal]FNSF[azaGly]L[Arg(Me)]F-NH2 [Compound No. 256: des(1)-[D-Pya(3) 2,Phe3,AzaGly7,Arg(Me)9]MS10] | 1 specific activity to metastin (1-54) | 22 |
| [d3Pal]WNSF[azaGly]L[Arg(Me)]F-NH2 (N-terminus assumed; SMILES CNC(=N)NCCC[C@H](NC(=O)[C@H](CC(C)C)NC(=O)NNC(=O)[C@H](Cc1ccccc1)NC(=O)[C@H](CO)NC(=O)[C@H](CC(N)=O)NC(=O)[C@H](Cc1c[nH]c2ccccc12)NC(=O)[C@H](N)Cc1cccnc1)C(=O)N[C@@H](Cc1ccccc1)C(N)=O, also called [D-Pya(3)2,AzaGly7,Arg(Me)9]MS10-(2-10)) [Compound No. 289: des(1)-[D-Pya(3) 2,AzaGly7,Arg(Me)9]MS10] | 1 specific activity to metastin (1-54) | 8.4 |
| [dY]N[2Nal]NSF[azaGly]L[Arg(Me)]F-NH2 (N-terminus assumed; SMILES CNC(=N)NCCC[C@H](NC(=O)[C@H](CC(C)C)NC(=O)NNC(=O)[C@H](Cc1ccccc1)NC(=O)[C@H](CO)NC(=O)[C@H](CC(N)=O)NC(=O)[C@H](Cc1ccc2ccccc2c1)NC(=O)[C@H](CC(N)=O)NC(=O)[C@H](N)Cc1ccc(O)cc1)C(=O)N[C@@H](Cc1ccccc1)C(N)=O) [Compound No. 246: [D-Tyr1,Nal(2) 3,AzaGly7,Arg(Me)9]MS10] | 2 specific activity to metastin (1-54) | 7.1 |
| WNSF[azaGly]L[Arg(Me)]F-NH2 (N-terminus assumed; SMILES CNC(=N)NCCC[C@H](NC(=O)[C@H](CC(C)C)NC(=O)NNC(=O)[C@H](Cc1ccccc1)NC(=O)[C@H](CO)NC(=O)[C@H](CC(N)=O)NC(=O)[C@@H](N)Cc1c[nH]c2ccccc12)C(=O)N[C@@H](Cc1ccccc1)C(N)=O) [Compound No. 271: des(1-2)-[AzaGly7,Arg(Me)9]MS10] | 1 specific activity to metastin (1-54) | 120 |
| {Propanoyl(3-indol-3-yl)}-NSF[azaGly]L[Arg(Me)]F-NH2 [Compound No. 260: des(1-3)-3-(3-Indolyl)propionyl-[AzaGly7,Arg(Me)9]MS10] | 5 specific activity to metastin (1-54) | 320 |
